Ends that are not written are not given here.
Experiments:
[1] = target: GXM-binding murine monoclonal antibody 18B7 (mouse); experiment: SPR; BIAcore 3000; antibody immobilised on a CM5 chip through primary amino groups; peptide P1 1.56 µM to 200 µM at 100 µl/min in 0.2 mM K2HPO4/KH2PO4 pH 6.5, 150 mM KCl, 0.01% Tween 20; 25°C; global fit to a two-state model, equilibrium constants calculated from the rate constants
[2] = target: deglycosylated form of mAb 18B7 (mouse); experiment: as above
[3] = target: Mouse-human chimeric antibody 18B7 (IgG1) (mouse | human); experiment: as above
thyroglobulin = target: T1, thyroglobulin (Bos taurus (assumed), UniProt P01267); experiment: ELISA; polystyrene plates coated overnight at 4°C with antigen at 5 µg/ml in bicarbonate buffer pH 9.6; blocked with 1% BSA in TBS; Abs added at 40 µg/ml in 1% BSA/TBS and serially diluted, overnight at 4°C; alkaline-phosphatase conjugated anti-mouse or anti-human IgG; conditions: both partners purified
T1 construct: thyroglobulin (Sigma); source: bought: Sigma
T1 sequence (P01267 20-2769): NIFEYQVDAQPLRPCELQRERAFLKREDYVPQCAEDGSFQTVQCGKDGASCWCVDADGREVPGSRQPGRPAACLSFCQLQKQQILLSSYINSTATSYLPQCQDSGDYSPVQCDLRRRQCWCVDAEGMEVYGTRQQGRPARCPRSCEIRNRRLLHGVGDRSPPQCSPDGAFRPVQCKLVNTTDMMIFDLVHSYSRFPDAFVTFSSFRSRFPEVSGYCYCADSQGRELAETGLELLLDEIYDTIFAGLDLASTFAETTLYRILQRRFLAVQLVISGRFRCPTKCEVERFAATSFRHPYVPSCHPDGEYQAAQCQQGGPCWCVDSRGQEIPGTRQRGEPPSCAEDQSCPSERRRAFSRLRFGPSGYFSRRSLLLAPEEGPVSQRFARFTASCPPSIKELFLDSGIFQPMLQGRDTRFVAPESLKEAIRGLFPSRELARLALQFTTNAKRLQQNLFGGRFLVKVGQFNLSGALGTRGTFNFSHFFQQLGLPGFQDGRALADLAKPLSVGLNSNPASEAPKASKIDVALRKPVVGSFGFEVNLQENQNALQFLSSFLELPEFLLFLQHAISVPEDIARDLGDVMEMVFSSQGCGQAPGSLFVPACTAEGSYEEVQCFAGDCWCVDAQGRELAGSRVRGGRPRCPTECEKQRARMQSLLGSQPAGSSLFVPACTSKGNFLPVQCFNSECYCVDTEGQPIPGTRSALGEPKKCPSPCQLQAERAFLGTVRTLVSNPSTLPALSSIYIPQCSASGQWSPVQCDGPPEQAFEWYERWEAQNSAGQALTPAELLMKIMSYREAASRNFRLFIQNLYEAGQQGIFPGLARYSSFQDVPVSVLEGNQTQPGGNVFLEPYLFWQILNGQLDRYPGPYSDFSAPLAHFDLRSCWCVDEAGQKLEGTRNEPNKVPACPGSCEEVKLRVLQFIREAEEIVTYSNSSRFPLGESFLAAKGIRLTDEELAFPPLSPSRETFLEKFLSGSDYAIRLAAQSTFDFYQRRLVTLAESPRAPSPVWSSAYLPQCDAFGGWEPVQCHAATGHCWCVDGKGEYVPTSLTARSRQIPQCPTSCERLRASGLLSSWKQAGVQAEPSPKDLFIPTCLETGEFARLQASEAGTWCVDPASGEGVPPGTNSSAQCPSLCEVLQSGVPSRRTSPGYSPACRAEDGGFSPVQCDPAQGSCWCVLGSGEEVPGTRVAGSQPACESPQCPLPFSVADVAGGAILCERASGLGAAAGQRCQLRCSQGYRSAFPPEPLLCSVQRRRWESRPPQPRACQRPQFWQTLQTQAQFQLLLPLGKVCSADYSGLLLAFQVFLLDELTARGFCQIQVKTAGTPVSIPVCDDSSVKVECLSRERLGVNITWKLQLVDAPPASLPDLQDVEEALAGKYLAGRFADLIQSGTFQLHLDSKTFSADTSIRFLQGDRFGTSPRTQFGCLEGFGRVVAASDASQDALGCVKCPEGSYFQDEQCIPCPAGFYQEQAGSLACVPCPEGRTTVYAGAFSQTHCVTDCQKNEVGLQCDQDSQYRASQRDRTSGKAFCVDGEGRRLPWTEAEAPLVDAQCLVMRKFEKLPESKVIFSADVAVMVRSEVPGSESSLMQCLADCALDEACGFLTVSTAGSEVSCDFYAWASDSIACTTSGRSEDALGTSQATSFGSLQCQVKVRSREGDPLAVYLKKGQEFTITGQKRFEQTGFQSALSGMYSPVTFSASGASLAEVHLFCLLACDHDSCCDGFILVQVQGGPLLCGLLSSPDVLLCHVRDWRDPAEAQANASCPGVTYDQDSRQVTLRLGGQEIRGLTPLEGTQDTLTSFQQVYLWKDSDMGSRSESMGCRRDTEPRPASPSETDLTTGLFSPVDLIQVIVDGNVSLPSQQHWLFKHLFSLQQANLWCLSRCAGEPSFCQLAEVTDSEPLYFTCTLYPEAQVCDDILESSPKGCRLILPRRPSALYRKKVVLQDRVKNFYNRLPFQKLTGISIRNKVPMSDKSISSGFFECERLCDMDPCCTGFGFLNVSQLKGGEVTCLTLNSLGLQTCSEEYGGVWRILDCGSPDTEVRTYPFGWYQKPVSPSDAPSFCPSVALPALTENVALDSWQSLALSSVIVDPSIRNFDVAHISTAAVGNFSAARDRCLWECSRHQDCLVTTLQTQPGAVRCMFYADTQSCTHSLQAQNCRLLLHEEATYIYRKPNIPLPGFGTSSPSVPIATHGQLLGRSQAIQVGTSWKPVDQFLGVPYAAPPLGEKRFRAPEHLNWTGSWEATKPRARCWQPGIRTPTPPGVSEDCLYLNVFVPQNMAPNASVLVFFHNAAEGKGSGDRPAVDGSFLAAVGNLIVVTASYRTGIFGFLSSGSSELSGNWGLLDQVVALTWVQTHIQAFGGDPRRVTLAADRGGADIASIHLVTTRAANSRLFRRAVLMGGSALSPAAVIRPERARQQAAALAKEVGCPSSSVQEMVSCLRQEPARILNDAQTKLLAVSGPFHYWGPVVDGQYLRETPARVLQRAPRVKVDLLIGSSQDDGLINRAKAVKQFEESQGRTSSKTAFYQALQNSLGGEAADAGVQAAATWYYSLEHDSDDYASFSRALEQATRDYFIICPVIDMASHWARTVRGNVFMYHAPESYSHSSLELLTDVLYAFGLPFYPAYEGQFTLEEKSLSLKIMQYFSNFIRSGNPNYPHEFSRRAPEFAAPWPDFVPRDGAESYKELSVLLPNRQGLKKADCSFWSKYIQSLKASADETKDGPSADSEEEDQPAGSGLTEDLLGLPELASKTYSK

B1: Peptide mimetic of GXM P1 (peptide)
peptide: SPNQHTPPWMLK
modifications: also: biotinylated, position not given here
Binder B1 has a Kd [1] of 2330 µM, a Kd [2] of 1070 µM and a Kd [3] of 541 µM.

B2: Mouse-human chimeric antibody 18B7 (IgG1) (antibody, V domains shown)
VH: DVKLVESGGGLLKLGGSLKLSCVASGFSFSSYFMSWVRQTPEKRLELVAMINNNGDKTYYPDTVRGRFTISRDNAKNTLYLQMSSLKSEDTAMYYCARRDGTFGNHFDYWGQGTTLTVSS
VL: DVVMTQAPLALPVSLGDQASISCRSSQSLAHSNGNTYLHWYLQKPGQSPKLLIYKVSNRFSGVPDRFSGSGSGTDFTLKISRVEAEDLGVYFCSQSTHVPWTFGGGTKLEIK
notes: as the VH of m1 (identical V regions); human IgG1 (γ1) heavy chain constant region; as the VL of m1 (identical V regions); light chain constant region; IgG1; also called chAb 18B7; ch18B7; source: generated by cloning and transfection as described [36], purified by protein L agarose beads
B2: binds (thyroglobulin).

B3: deglycosylated form of mAb 18B7 (antibody, V domains shown)
VH: DVKLVESGGGLLKLGGSLKLSCVASGFSFSSYFMSWVRQTPEKRLELVAMINNNGDKTYYPDTVRGRFTISRDNAKNTLYLQMSSLKSEDTAMYYCARRDGTFGNHFDYWGQGTTLTVSS
VL: DVVMTQAPLALPVSLGDQASISCRSSQSLAHSNGNTYLHWYLQKPGQSPKLLIYKVSNRFSGVPDRFSGSGSGTDFTLKISRVEAEDLGVYFCSQSTHVPWTFGGGTKLEIK
notes: as the VH of m1; murine IgG1 heavy chain constant region, as in m1; as the VL of m1; as the light chain constant region of m1; Same chains as m1 without the N-glycan; PNGase F is known to turn the glycosylated Asn into Asp; also called 18B7dg; mAb 18B7dg; source: mAb 18B7 from hybridoma culture supernatants (protein G), incubated with PNGaseF at 37°C for 24 h, dialyzed against PBS
B3: binds (thyroglobulin).

B4: GXM-binding murine monoclonal antibody 18B7 (antibody, V domains shown)
VH: DVKLVESGGGLLKLGGSLKLSCVASGFSFSSYFMSWVRQTPEKRLELVAMINNNGDKTYYPDTVRGRFTISRDNAKNTLYLQMSSLKSEDTAMYYCARRDGTFGNHFDYWGQGTTLTVSS
VL: DVVMTQAPLALPVSLGDQASISCRSSQSLAHSNGNTYLHWYLQKPGQSPKLLIYKVSNRFSGVPDRFSGSGSGTDFTLKISRVEAEDLGVYFCSQSTHVPWTFGGGTKLEIK
notes: VH of mAb 18B7; murine IgG1 heavy chain constant region; VL of mAb 18B7; murine light chain constant region; Murine IgG1; also called mAb 18B7; m18B7
B4: binds (thyroglobulin).
